Laboratory results reported in PMC8964982.

Biological target: discoidin domain receptor 1 (DDR1) (human (endogenous in primary human umbilical artery SMCs)) (UniProt Q08345)
Assay: atomic force microscopy

discoidin domain receptor 1 (DDR1) (human (endogenous in primary human umbilical artery SMCs)), sequence (Q08345 19-913): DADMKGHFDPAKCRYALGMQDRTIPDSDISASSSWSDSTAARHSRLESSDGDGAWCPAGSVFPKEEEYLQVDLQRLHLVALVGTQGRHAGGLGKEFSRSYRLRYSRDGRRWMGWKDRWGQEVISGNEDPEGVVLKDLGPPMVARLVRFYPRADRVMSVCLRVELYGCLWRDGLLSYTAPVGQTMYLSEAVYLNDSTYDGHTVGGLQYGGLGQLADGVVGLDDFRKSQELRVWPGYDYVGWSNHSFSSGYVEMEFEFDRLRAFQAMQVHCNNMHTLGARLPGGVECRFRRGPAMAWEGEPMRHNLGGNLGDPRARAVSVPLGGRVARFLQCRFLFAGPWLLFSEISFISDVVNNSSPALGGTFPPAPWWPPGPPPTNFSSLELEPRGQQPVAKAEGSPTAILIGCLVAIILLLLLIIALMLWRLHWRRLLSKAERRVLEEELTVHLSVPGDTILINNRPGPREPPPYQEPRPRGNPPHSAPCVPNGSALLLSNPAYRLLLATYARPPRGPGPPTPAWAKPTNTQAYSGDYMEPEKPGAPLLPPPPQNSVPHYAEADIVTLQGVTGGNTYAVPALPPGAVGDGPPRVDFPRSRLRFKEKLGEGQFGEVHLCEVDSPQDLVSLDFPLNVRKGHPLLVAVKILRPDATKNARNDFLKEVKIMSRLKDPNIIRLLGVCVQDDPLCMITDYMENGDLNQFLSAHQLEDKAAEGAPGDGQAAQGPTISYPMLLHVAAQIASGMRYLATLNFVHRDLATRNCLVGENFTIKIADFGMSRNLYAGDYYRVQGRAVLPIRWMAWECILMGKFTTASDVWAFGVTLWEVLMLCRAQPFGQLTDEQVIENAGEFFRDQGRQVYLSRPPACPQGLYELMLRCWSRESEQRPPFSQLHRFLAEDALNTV
Collagen type I (Corning), P02454 152-1207; P02466 86-1125 (ligand), sequence (P02454 152-1207): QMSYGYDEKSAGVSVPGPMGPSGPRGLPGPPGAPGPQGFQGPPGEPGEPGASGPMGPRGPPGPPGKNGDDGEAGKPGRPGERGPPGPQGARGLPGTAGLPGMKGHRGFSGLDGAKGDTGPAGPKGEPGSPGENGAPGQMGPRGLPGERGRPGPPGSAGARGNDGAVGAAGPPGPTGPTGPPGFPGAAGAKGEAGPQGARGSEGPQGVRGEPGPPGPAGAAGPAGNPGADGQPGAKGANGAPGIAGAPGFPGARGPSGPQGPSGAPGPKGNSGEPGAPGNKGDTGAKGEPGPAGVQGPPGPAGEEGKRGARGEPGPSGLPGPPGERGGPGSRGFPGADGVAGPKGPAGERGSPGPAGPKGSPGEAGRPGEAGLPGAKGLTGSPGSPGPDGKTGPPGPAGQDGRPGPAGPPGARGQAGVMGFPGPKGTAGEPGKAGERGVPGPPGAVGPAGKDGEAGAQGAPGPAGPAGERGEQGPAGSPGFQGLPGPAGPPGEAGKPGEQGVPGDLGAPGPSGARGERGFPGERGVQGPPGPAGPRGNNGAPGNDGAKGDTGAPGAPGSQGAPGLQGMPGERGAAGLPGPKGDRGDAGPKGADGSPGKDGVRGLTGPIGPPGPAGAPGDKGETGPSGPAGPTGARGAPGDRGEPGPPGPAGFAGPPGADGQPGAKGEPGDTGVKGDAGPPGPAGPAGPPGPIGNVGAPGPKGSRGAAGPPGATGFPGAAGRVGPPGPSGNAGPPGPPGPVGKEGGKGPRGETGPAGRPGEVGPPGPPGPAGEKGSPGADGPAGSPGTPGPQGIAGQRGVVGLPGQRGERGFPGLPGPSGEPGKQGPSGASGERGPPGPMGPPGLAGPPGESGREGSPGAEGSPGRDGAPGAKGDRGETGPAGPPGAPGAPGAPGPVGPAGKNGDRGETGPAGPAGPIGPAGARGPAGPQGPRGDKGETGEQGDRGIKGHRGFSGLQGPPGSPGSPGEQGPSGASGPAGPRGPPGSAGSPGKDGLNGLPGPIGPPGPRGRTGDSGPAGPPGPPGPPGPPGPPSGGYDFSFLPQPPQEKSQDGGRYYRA
Collagen type I (Corning), P02454 152-1207; P02466 86-1125 (ligand), sequence (P02466 86-1125): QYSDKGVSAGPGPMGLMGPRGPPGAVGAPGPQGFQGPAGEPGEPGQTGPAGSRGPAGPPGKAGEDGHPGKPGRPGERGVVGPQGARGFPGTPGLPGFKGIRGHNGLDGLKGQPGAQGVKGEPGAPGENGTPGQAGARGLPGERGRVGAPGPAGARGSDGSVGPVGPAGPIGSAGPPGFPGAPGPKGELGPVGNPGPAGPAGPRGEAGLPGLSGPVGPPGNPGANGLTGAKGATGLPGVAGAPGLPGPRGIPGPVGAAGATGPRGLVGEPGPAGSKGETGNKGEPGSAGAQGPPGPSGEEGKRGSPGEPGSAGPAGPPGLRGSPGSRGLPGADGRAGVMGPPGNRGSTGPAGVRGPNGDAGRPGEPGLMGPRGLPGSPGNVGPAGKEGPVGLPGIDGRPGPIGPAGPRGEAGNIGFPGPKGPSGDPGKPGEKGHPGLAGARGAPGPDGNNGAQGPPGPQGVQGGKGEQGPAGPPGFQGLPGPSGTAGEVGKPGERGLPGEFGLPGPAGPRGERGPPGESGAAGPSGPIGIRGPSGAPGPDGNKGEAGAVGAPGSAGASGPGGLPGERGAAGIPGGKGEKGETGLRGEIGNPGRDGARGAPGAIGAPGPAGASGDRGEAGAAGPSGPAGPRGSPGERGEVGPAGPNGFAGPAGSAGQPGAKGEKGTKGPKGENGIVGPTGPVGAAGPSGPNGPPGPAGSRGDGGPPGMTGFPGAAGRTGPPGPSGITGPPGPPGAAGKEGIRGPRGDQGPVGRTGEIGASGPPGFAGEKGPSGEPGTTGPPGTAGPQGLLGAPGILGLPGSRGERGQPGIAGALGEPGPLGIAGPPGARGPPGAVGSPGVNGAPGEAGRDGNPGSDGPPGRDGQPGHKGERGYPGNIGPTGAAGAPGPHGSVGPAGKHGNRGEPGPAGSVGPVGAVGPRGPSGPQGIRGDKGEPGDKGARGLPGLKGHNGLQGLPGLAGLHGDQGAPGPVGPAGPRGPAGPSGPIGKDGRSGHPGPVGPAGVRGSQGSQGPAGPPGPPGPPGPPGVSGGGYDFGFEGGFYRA

adhesion probability (cells on soft gels): 18.3%
adhesion probability (cells on stiff gels): 32.4%
Substance: Collagen type I (Corning), P02454 152-1207; P02466 86-1125 (ligand)
